Source: the nanobody polyreactivity screen of Harvey et al. (2022)

Assay: yeast display, Sf9 membrane polyspecificity reagent, FACS + sequencing; frameworks hold sequencing errors
How it was run: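 Nanobodies from a synthetic yeast display library (Saccharomyces cerevisiae BJ5465), induced 36–48 hours with galactose, were stained 1 hour at 4 °C with 10% biotinylated, detergent-solubilized Sf9 membrane reagent, enriched on streptavidin microbeads, then FACS-sorted. Anti-HA (expression) and streptavidin (reagent binding) fluorescence set low and high (top ~1%) gates. Polyreactivity labels come from the gate of origin. Genes were colony-PCR amplified, MiSeq 2 × 250 sequenced and filtered by CDR length.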

Sequence | polyreactivity (PSR sort gate)
QVQLVESGGGLVQARGSLRLSCAASGSIFYRNAMGWYRQAPGKETELVARIDRGGITHYADSVKGRFTISRDNAMNTVYLQMNSLKPEDTAVYYCAARKGYWYPTGHGARRYDYWGQGTQVTVSS | high polyreactivity
QVQLVESGGGLVQAGGSLRLSCDASGRISGSYVMGWYRQAPRKERELVAGISGRGGSTYYADSVKGRFTISRDNAKNTVDLQMNSLKPEDTAVYYCAVVDRTSKGNSYYWGQGTQVTVSS | high polyreactivity
QVQLVESGGGLVQAGGSLRLSCAASGSTFYFNAMGWYRQAPGKERELVAGISSGGSTYYADSVKGRFTISRDNAKNTVYLQMNSLKPEDTAVYYCAADSDTFYYTGYDYDYWGQGTQVTVSS | low polyreactivity
QVQLVESGGALVQAGGSLRLSCAASGRTYRWYAMGWYRQAPGKESELVARIRGSGGSTYADSVKGRFTISRDNAKNTVNLEMNSLTPEDTAVYYCARKVTGRNGAQFYVSYYYWGQGTQVPVSS | low polyreactivity
QVQLVETGGGLVQEGGSLRISCAASGSLFDVYAMGWYRQAPGKERELVAAISSSGSTYYADSVKGRFTISRDNAKNTVYLQMNSLKTEDTAVYYCAADQADDDDYYYWGQGTQVTVSS | low polyreactivity
QVHLVESGAGLVQAGGSLRLSCAASGSVFPVNAMGWYRQAPGKERELVAAISGSSGSTYYADSVKGRFTISRDNAKNTVYLQMNSLKPEDTAVYYCAKRGYGYGDGAYYYWGQGTQVTVSS | low polyreactivity
QVQLVESGGGLVQAGGSLRLSCAASGIIFGRNTMGWYRPAPGKERELVAGISSNGGSTYYADSVKGRFTISRDNAKNTVYLQMNRLKPEDTAVYYCAAYYNIPDRRRVGYDYWGQGTQVTVSS | high polyreactivity
QVQLVESGGGLVHAGGSLRLSCAASGRIYYFNAMGWYRQAPGKERELVATITYIGGSTHYADSEKGRFTISRDNAKNTVYLQMNSLKPEVTAVYYCAVRDGKDTDTYWYGYWGQGTQVTVSS | low polyreactivity
QVQLVESGGGLVQAGGSLRLSCAASGFIFSSYGMGWYRQAPGKERELVADISGGGSTNYADSVKGRFTISRDNAKNTVYLQMNSLKPEDTAVYYCNAQLIRSAAYDYWGQGTQVTVSS | low polyreactivity
QGQLVESGGGLVQAGGSLRLSCAASGRTFTDYAMGWYRQAPGKEWELVADISGSGGSTYYADSVKGRFTISRDNAKNTVYLQMNSLNPEDTAVYYCNAVGSRRDKFDYWGQGTQVTVSS | low polyreactivity
QVQLVESGGGLVQAGGSLRLSCAASGRIFRNNAMGWYRQATGKERELVATISSRGGSTYYADSVKGRFTISSDNAKNNVYLQMNSLKPEDTAVYYCNKRWLHWAGYDYWGQGTQVTVSS | high polyreactivity
QVQLVESGGGLVQAGGSLRLSCAASGSIFGDNAMGWYRQAPGKERELVASITWSGGSTFYADSVKGRFTISRDNAQITVYLQMNSLKPEDTAVYYCAADTAEYLYDMDYWGQGTQVTVSS | low polyreactivity
QVQLVESGGGLVQAGGSLRLSCAASGYTFYKYAMGWYRQAPGKEREFVADITQSGGSTYYADSVKGRFTISRDNAKNTVYLQMNSLKPEDTAVYYCNAAYSYRPDPKGYDYWGQGTQVTVSS | low polyreactivity
QVQHVESGGGLVQAGGSLRLSCAASGRIFGWYAMGWYRQAPGKERELVAVISWRGRTYYADSVKGRFTISRDNAKNTVYLQMNSLKPEDTAVYYCNARSRSAYDYWGQGTQVTVSS | high polyreactivity
QVQLVESGGGLVQAGGSLRLSCAASGSTFNRYAMGWYRQAPGKERELVAAISSRGGRTYYADSVKGRFTISRDNAKNTVYLQMNSLKPEDTAVYYCAADSSIDYDWGQGTQVTVSS | high polyreactivity
QVQLVESGGGLVQAGGSLRLSCAASGRTFGPYAKGWYRQAPGKERELVAAITDTGSGTFYADSVKGRFTISRDNAKNTVYFQMNSLKPEDTAVYYCNAVRKYWGQGTEVTVSS | low polyreactivity
QVQLEESGGGLVQAGGSLRLSCAASGGIFWYNAMGWYRQAPGKERELVADISSSGITYYADSVKGRFTISRDNAKNTVYLQMNSLKPEDTAVYYCAADSTTRPGLRVYDDYDYWGQGTQVTVSS | low polyreactivity
